Test results reported in the supplement of paper PMC12042874.
± gives the uncertainty stated by the source.

assay: amyloid nucleation score (Sup35N fusion, yeast selection) (log enrichment); library NNK2; higher = more nucleation; inactive = no reads after selection
Outline: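 The nucleation score is a DiMSum log enrichment of output over input reads, centred on the mode score of non-aggregating sequences. Sequences under 100 input reads were excluded, and reads came from Illumina sequencing of plasmid inserts. Psi-negative yeast expressing Sup35N fused to peptides of 20 random codons were induced with 100 μM copper sulfate for 24 hours and grown 7 days at 30°C on medium lacking adenine and uracil. Random libraries had three technical output replicates.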

Row | Substance | amyloid nucleation score
1 | TNTLMGPFWLSWSNVQPNRS | -0.787 ± 0.54
2 | RHKMWVFRT | inactive
3 | NQSESFHGLDHFTRNHGGCR | inactive
4 | CWRNTDLKGLGNWPSLLASV | 0.589 ± 0.57
5 | VSLRYRKRQWCYRVKWSITD | -1.36 ± 0.48
6 | LVNTYYAHVWWLLVGIMMLS | -0.645 ± 1.1
7 | TIRSCVNF | 1.41 ± 0.1
8 | MKVLGNCISQIVNMDVWLLF | -1.73 ± 0.47
9 | SNVLFWI | inactive
10 | ATFFILRTYGVWVTSIKRRS | 0.157 ± 1
11 | VFYVCFKLQIIDGMLNWCKG | 7.237 ± 0.032
12 | VLRHLD | 0.44 ± 0.54
13 | MNIAVIHNMVQGSKAPDYHF | 4.67 ± 0.075
14 | YGDCLRLTDSYVSIFTRVPT | 0.159 ± 0.3
15 | LGYGWFNVLTYTTI | -0.209 ± 0.65
16 | IRNLLCVSYGCTGYMMVGHG | 4.68 ± 0.063
17 | FMRWSRISRSGYNDDGSLVG | 3.52 ± 0.067
18 | VHRWSDTYTTTYM | -0.535 ± 0.33
19 | ILRCLNLYMRSIMRVELSIQ | 0.461 ± 0.8
20 | RIGVSSFVEEHSRIGLGRAP | 5.57 ± 0.066
21 | ASEGVGCFV | inactive
22 | STKITAESGR | 0.502 ± 0.41
23 | DWCYYGG | inactive
24 | VWYFIDFGPRKISVITWRYS | -0.642 ± 0.78
25 | VRLRGYSR | -0.439 ± 0.39

Row | Substance | amyloid nucleation score
26 | YRVRCLHWHLIFDCNKKRSK | -0.331 ± 1.1
27 | TLASRTNF | inactive
28 | PKPTYTP | 0.292 ± 0.38
29 | SGMGSSYLFQFGSMYAFDDC | 0.636 ± 0.34
30 | CVFISLNMNKIYMLDNSGQW | 8.445 ± 0.036
31 | DGALNTFIDYGLSTAIKKIN | inactive
32 | KWVGWMWGYEGSLWSSNLWR | 0.242 ± 0.77
33 | LAISHMLSKCVKKIDTL | 1.56 ± 0.2
34 | AWVYSMRQVYQLNCLDQIMY | inactive
35 | NWQVPKVFQVLNYA | 0.054 ± 0.79
36 | SFTFCARNSGLIGWSGDISS | 4.07 ± 0.1
37 | WTYPLC | -0.744 ± 1.1
38 | RCFIHRGGLLVVLV | -0.98 ± 0.54
39 | CSCSVIGWFLHPVATVINLT | 2.73 ± 0.07
40 | DVLVSILITPRCHHA | inactive
41 | YAVAEGFVASGYWTAYMPLS | 0.487 ± 0.62
42 | YSYVIWYMHHCFWLNLRKFM | 0.979 ± 0.67
43 | RLLAVPLVRFRC | -0.23 ± 0.79
44 | IQWYNLYTENRMISKLRGSW | -0.547 ± 1.1
45 | YASCLSSKLCDEDNPTYW | -0.488 ± 0.39
46 | KKFSSMYRSEFGNSI | -0.65 ± 0.41
47 | ICIFIWIDASRACKPNIQCS | 5.58 ± 0.062
48 | SCYRIWIMILVIGFSLNRRL | -0.208 ± 0.2
49 | VSEWFGTKGWRLDYLCLYWL | -1.03 ± 0.64
50 | NHKAIYLRPSSTNPEILSRA | 1.15 ± 0.47

Row | Substance | amyloid nucleation score
51 | TQINEVLL | -0.722 ± 0.28
52 | RLLSGCLFGGSRA | -0.623 ± 0.76
53 | LCHTRCDRNSSCLL | -0.56 ± 0.79
54 | VSFSSNHGFAMVRLSWSQKR | 5.49 ± 0.058
55 | LDVPARSMCFY | -0.761 ± 0.61
56 | NLKIMLIRTIVYHDWSTMHL | 7.161 ± 0.061
57 | NPSCTRKVLVYSY | 0.359 ± 0.43
58 | QMETSFL | -1.58 ± 1.1
59 | RFAMFMVVRWGWDHKYEFLR | 0.353 ± 0.33
60 | RGLRDLMCLRPLRLASSQPP | inactive
61 | MRYEFVLFLRFRGSDTKGRD | -0.124 ± 0.33
62 | LAQSYVSYS | -1.45 ± 0.54
63 | YKTIIRSVMSELSGSLRQSE | 1.26 ± 0.11
64 | RGDHLGCSII | -0.101 ± 0.79
65 | VVRKRSKMKLRRIHFSWLVW | 0.744 ± 0.26
66 | NSYSGAVLT | -0.464 ± 1.1
67 | LSRRMDMRSSTSALHVSIQL | 6.413 ± 0.064
68 | RVSSYSQATKKLKHERFGDV | -0.533 ± 0.44
69 | RIGSGTGRPWN | -1.02 ± 0.39
70 | TNAIYRGVLGSMDQGT | inactive
71 | IFVGIIKIVCWNNEGVDDLQ | 4.61 ± 0.063
72 | RAGFSSAPLVEGRSLTQRCR | inactive
73 | FSFEWMFWGWTCNQGTDVVS | -0.319 ± 0.54
74 | CDYEYGCQNKRGFRMLLKSW | inactive
75 | EDSPPFWGVVWPFTRNNDRK | 1.11 ± 0.52

Row | Substance | amyloid nucleation score
76 | TFYRACALTLMRDQTDSWYC | 4.35 ± 0.091
77 | ALPTWWVDKNLLSCLYSELS | -0.104 ± 0.62
78 | FDLNSTVWIRCGGLILRLKP | 0.01 ± 0.25
79 | IRYFR | 0.371 ± 0.13
80 | RTEMHYARQRHELDVPVWL | 0.25 ± 0.49
81 | GPDSLLGFMSAHNWSAKVYP | 0.209 ± 0.44
82 | WNSIYGLAEMQVCWWFGWGC | -0.628 ± 0.41
83 | ISFYYWLARPCLFVSKIEGA | 3.54 ± 0.062
84 | ISVDTRFGLNVCFEGCCAYR | 7.449 ± 0.062
85 | SSQGLPDNGTRPLGWKYR | 0.417 ± 0.4
86 | GLNIGVCLIMHEDRTNSGGK | 8.011 ± 0.032
87 | KIKPLIIKNMCGNNTGPGIQ | inactive
88 | GHCLSYMCVGLA | 4.304 ± 0.039
89 | ALRISQFCIL | -0.261 ± 1.1
90 | LYLHKDHIDVNFNHMVKGLT | -0.263 ± 1.1
91 | ALAACSNSRG | 0.416 ± 0.54
92 | GYNLKILESIMEGSAGLMCT | -0.779 ± 0.33
93 | TLGVSRNLALSTEARTLRPY | -0.041 ± 0.42
94 | SDMYM | -0.324 ± 1.1
95 | IIDYFSN | -0.953 ± 1.1
96 | NFKYHCRYWFFVFAKFKFHL | -1.42 ± 0.75
97 | IYTWSIRIYRF | -0.778 ± 0.48
98 | RRTIGASTEKYRLNNFLHVC | -0.661 ± 1.1
99 | REWEVCGDCLVGNNGWFRWV | 0.409 ± 0.47
100 | GNSYNVKTYTNLVGIIMDKA | inactive

Row | Substance | amyloid nucleation score
101 | NITLYFKRSLDLFGEPMWTQ | 1.53 ± 0.16
102 | VSMRMVHGDYKWGRGCLIWI | -0.196 ± 0.45
103 | AIPSRPSFLKPQPRILFTIP | -0.702 ± 0.39
104 | NTEEDDKRVRMGELVVEYSN | 1.36 ± 0.17
105 | RLVWWVIWIPSKCMGADKNW | -0.029 ± 0.8
106 | IFVCAMV | 0.395 ± 0.65
107 | SILCLLNRLTFREYLMVFID | -0.583 ± 0.55
108 | AYMNWCTLKMRR | -0.063 ± 0.28
109 | CLAFNFVFIHPSTGAFSRTS | 8.38 ± 0.072
110 | YMYLVVCLIVSHDPVSVVEW | inactive
111 | FKSTNLMAWIFGMYIVFLGF | -0.08 ± 1
112 | NLQLTFGS | -0.202 ± 0.21
113 | YAMCTWSV | 1.88 ± 0.13
114 | SVTRWEHAMAVPKKLLHSGR | 1.05 ± 0.23
115 | GVNRAWL | 3.35 ± 0.06
116 | YNDSDFWGRVWSTHAPCKAT | -0.134 ± 1.1
117 | IWGPVLYIMSGYSSVVTRF | 6.561 ± 0.055
118 | NLAFTNALVLLWNSVYLKDE | 8.274 ± 0.058
119 | IMIILLVSVTKSNFTPQSMC | 2.26 ± 0.23
120 | HLCSCTMWGPHNRGFYYHWC | inactive
121 | MAFVDISSANFRKITRDLLP | 0.82 ± 0.19
122 | SGISKTGLYASYWGYLSGGK | -0.453 ± 0.27
123 | VRANLGAGFRFKSETGDAS | 0.861 ± 0.14
124 | NVDLFWQWVYVYWRGARVEF | 0.075 ± 0.43
125 | QRCRFPYDTGSSTHSWTEVG | 0.614 ± 0.35

Row | Substance | amyloid nucleation score
126 | FCVIAQYAQVPMSCWGWLES | -0.191 ± 1.1
127 | YFMSRRE | -0.04 ± 0.45
128 | VSYDSNAILTFVNSYSRRRL | 1.48 ± 0.19
129 | SSYKKYSVVN | -1.59 ± 0.48
130 | FVSLWT | 0.277 ± 0.45
131 | SCFPM | -1.67 ± 0.62
132 | TFDVTRI | -0.311 ± 0.33
133 | AMVWGSIFSRKSQGLSHSSG | inactive
134 | QSRSMNRHNWHTFMLWAWER | -0.695 ± 0.61
135 | LLGTFYTS | -1 ± 1.1
136 | GKGANARLCIRYDITAVEGT | 1.61 ± 0.44
137 | SKYGMFILGNRSNGDWFNMV | -0.673 ± 0.48
138 | VINRMCIVWPYMSSYWEWNV | 9.126 ± 0.06
139 | FSLYN | -1.64 ± 0.75
140 | NGQFGTSHGMVGTGVSLRG | -0.012 ± 0.65
141 | PYYTIVMFAFYGLLTVRMGI | 0.706 ± 0.4
142 | VYGYDKISHFVHSMNSNIVW | inactive
143 | RHICIFMNRMSYMDLWPALL | inactive
144 | NCNFSLEGHYCTFIKFHWTV | 3.23 ± 0.097
145 | SVFYHLYSHWIFIVCTNTRR | -0.414 ± 0.43
146 | CTHNTSKVSKMVIVCPRFNL | 6.218 ± 0.035
147 | YMMMIDL | -1.26 ± 0.64
148 | PGNCRSFCRS | 0.695 ± 0.47
149 | IRPINGSWGVSTNCKVYDYV | -0.011 ± 1.1
150 | VRFKYIYHTGLDDVAVNQY | -0.487 ± 0.55

Row | Substance | amyloid nucleation score
151 | VAGDLGGRSELLARIRSGHA | inactive
152 | HASWIGISLS | -0.395 ± 0.74
153 | SRACRFTFD | 0.49 ± 0.42
154 | YINKKLGEAKGRDLLVRLGQ | 3.63 ± 0.07
155 | IFVLNKQNYLRIYNVPPLLI | 5.667 ± 0.05
156 | RITIAQHTDSKGDA | -0.01 ± 0.61
157 | NLSCNLFVSFWYGW | 4.67 ± 0.068
158 | ADCFWAIDYPTWAYRIYGSH | inactive
159 | ALCWVGSYSACLRIFKPSRM | 0.521 ± 0.41
160 | TLCWLYLWVYRCKDYEELTC | -0.167 ± 0.63
161 | VNSEPDTLEGNENWYMGTRC | -0.125 ± 0.49
162 | LGLPNNGL | -0.187 ± 0.55
163 | HNGVCSSRARVSLWAGRCWK | 0.742 ± 0.22
164 | CTAQRNGKYDHGEDSLRLSR | 1.49 ± 0.36
165 | RMKMDNIPFEIYVFTVTLLD | inactive
166 | RLSWLLLKFNDQVWRLIGAG | 4.04 ± 0.054
167 | RSLLRFQ | 0.874 ± 0.14
168 | LRPLIIPGSKRHCNTVL | -0.005 ± 0.79
169 | LMFCTRFSLYTGSWFWSSVT | 1.57 ± 0.18
170 | TLFLRMVSLHFKSVVLWNWF | 0.213 ± 0.8
171 | IKMRNPSSRSSASGQQRGHV | 0.167 ± 0.26
